{"source": "the DeepSol protein solubility set", "assay": "soluble on expression in E. coli; label from the status in PepcDB or PDB records", "data": [{"sequence": "VDVRAIMTPPAHQDGGKHDVDARGPCGLTPLMIAAVRGGGLDTGEDIENNEDSTAQVISDLLAQGAELNATMDKTGETSLHLAARFARADAAKRLLDAGADANCQDNTGRTPLHAAVAADAMGVFQILLRNRATNLNARMHDGTTPLILAARLAIEGMVEDLITADADINAADNSGKTALHWAAAVNNTEAVNILLMHHANRDAQDDKDETPLFLAAREGSYEACKALLDNFANREITDHMDRLPRDVASERLHHDIVRLLDEHVPRSPQMLSMTPQAMIGSPPPGQQQPQLITQPTVISAGNGGNNGNGNASGKQSNQT", "values": [{"measurement": "soluble on expression in E. coli", "value": "soluble"}]}, {"sequence": "FLEVNYYSRVLGMNRVMNVLLPEESDHNPNWTNDSLKDLPVLYLLHGMSGNHFDWQRKSDIERLLRQTKLAVIMPAADLAWYTNTDYGMNYFDAISQELPRKVASLFPQISTKRKKHFVAGMSMGGYGAFKLAFSSSYFSYAASLSGTLISSLNYPGFLDMEKQAYWKGIFGDLDKFSGSKNDIFELAKRQSNTGIELPKLYAWVGQQDFFYGANEKAIPRLRKMGYDVSYETNPGDHEWYYWSKYIENILQWLPINYQAEKRLS", "values": [{"measurement": "soluble on expression in E. coli", "value": "not soluble"}]}, {"sequence": "MGSDKIHHHHHHMERDMICTPISYQNKTSAQTFSNFLKHTRTENNLSQEDLCGLLRQKSCLFDTLDSITISRWERGVNIPSLAKQSEIVEIFGSELFDIYREDKKFINEGLALINLFESNIERSDHPYYRNTPYRVEFIESHHHNFMALLQLSLVYESNPRLSFVSRNLSQPFFHGLSLVVAFSSGDQIVGHSLFCRSQGKIALEFMNDEVDLFEVINHNSQALPDTLMVFSSFGVTPYIENYMMSVYLNELAASRSLKFLSFNICDESLKRKLTQFKLPIFKVRTIEGCCKPIKNYSFFSSRTEVMANRNLLKLSVIPSSKSQTIDPIFFMQLETPI", "values": [{"measurement": "soluble on expression in E. coli", "value": "not soluble"}]}, {"sequence": "MQPYLIPQPGIRVSLSELIEMRHRVREVQLFSTPSRRSPLIGLHHSKLRGRGVDFDQVRVYQAGDDVRSIDWRVTARTQEPHTKLFHEERERPIFILVEQSRRLFFGSGLMFKSVLAAQAAALIGWAALEHNDRVGGLVFGDNEHYEIKPRRSKQSLLQLLNRLVRVNQSLHTEIPADRDAFGTALRRAREVLRPGSLVIVLCDERALSDVAEQQLSLLSRHSDLLLLPLSDPLDRALPAAGLLRFAERGAQLELDTLNPELRRAYRQQGEDRSARWELLAQKLRVLLMPLSTQSELVEQLREYLNAQRPVKRK", "values": [{"measurement": "soluble on expression in E. coli", "value": "not soluble"}]}, {"sequence": "MAKVLVLNASYEPLNITSWQRAVVLLIKGKAEQVEHNGKMVYNNFPLPTVIRLRHYVVTPYKEIPLTRRNILHRDGHSCQYCGYTGDELTLDHVIPKSRGGGETWENIVTACVRCNVKKGNRTPKEANMPLRQTPRRPISSLYFEVTKHVRTGTHQEWRKYVIGALEHHHHHH", "values": [{"measurement": "soluble on expression in E. coli", "value": "not soluble"}]}, {"sequence": "MGHHHHHHSHMTQDRPLLAVQEALKKCFPVVEEQQGLWQSALRDCQPLLSSLSNLAEQLQAAQNLRFEDVPALRAFPDLKERLRRKQLVAGDIVLDKLGERLAILLKVRDMVSSHVERVFQIYEQHADTVGIDAVLQPSAVSPSVADMLEWLQDIERHYRKSYLKRKYLLSSIQWGDLANIQALPKAWDRISKDEHQDLVQDILLNVSFFLEE", "values": [{"measurement": "soluble on expression in E. coli", "value": "not soluble"}]}, {"sequence": "MYYGFDIGGTKIALGVFDSTRRLQWEKRVPTPHTSYSAFLDAVCELVEEADQRFGVKGSVGIGIPGMPETEDGTLYAANVPAASGKPLRADLSARLDRDVRLDNDANCFALSEAWDDEFTQYPLVMGLILGTGVGGGLVLNGKPITGQSYITGEFGHMRLPVDALTLMGFDFPLRRCGCGQMGCIENYLSGRGFAWLYQHYYDQSLQAPEIIALWEQGDEQAHAHVERYLDLLAVCLGNILTIVDPDLLVIGGGLSNFTAITTQLAERLPRHLLPVARAPRIERARHGDAGGMRGAAFLHLTD", "values": [{"measurement": "soluble on expression in E. coli", "value": "soluble"}]}, {"sequence": "GPGSMLSQYLRKRVSVVTVDGRNLVGVLHAADQLLNIVLTSCVERTGAPYDFDDGAAEEDNGSVVDEGVSTAFSGGDTASGALPPLEEVHLGVMMLRGADVVSIAAIDVYEEAGTNVKDWRGRDMPPATAVARSW", "values": [{"measurement": "soluble on expression in E. coli", "value": "soluble"}]}, {"sequence": "MSPDFLVTHSGGFHADELLSSVILTRLFPQARLIRSRAPEWITPAPGRIIYDVGGAYDPAAGIFDHHQRGAPQRDDGQPYSSFGLIWKHYGREYLAASGLPDHHVEALHAAFDTGFVLPIDLTDNGALSPSGPLAGLMLPALLETLKPVFDEAEPAADDRAFHAALAIARSFVDAGIAQRAAKLRAEAIVYRAIGDAGQGRILELPRGMPFRPAIVKAGADHLLFVVHPREKDWCVTGIRRAEDGFELRADLPAAWAGLTNGELEAVCGIEGASFCHNGRFVAAAKTRDAALAMAELAVQEALSIGVLEHHHHHH", "values": [{"measurement": "soluble on expression in E. coli", "value": "soluble"}]}]}
